According to patent US20220332804A1 (CSL INNOVATION, published 2022):
Where a chain is given by its changes, count along the chain named.

Assays:
Assay in all cases: SPR, KD relative to WT C2;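 also: biacore SPR at 37 °C, anti-C2 mAbs captured on anti-human IgG chips with alanine or serine point mutants of C2 as analyte, KD from 1:1 fit compared with wild-type C2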
human C2 N403A = target: T1, human C2 N403A (human, UniProt P06681 21-752)
T1 sequence: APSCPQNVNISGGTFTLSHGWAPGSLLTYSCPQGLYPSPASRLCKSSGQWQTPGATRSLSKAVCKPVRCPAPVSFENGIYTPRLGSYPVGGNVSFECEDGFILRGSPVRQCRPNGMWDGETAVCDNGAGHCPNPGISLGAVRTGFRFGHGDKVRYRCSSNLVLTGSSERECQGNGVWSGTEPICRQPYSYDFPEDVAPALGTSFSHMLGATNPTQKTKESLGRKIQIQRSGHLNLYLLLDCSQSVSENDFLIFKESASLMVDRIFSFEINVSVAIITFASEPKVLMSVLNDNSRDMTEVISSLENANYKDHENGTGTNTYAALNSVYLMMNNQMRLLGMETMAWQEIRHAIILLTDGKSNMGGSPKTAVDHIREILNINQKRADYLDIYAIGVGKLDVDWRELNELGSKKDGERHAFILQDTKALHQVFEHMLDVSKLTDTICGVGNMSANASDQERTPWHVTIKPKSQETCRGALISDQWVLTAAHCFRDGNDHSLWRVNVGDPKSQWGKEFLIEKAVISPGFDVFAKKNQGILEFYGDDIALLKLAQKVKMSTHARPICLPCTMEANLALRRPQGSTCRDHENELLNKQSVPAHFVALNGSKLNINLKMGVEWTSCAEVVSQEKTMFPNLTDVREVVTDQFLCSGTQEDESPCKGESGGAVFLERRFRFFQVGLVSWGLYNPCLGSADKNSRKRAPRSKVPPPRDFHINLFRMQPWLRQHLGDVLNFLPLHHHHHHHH

human C2 W420A = target: T2, human C2 W420A (human, UniProt P06681 21-752)
T2 sequence: T1 sequence with A383N, W400A

human C2 L453A = target: T3, human C2 L453A (human, UniProt P06681 21-752)
T3 sequence: T1 sequence with A383N, L433A

human C2 S473A = target: T4, human C2 S473A (human, UniProt P06681 21-752)
T4 sequence: T1 sequence with A383N, S453A

B1: RF16-242 (antibody, human IgG4 S228P, lambda, V domains shown)
VH: EVQLLQSGAEVKKPGESLKISCKGSGYSFTSYWIGWVRQMPGKGLEWMGIIYPGDSDTRYSPSFQGQVTISADKSISTAYLQWSSLKASDTAMYYCARRGHYGDYFDYWGQGTLVTVSS
VL: SYELTQPPSVSVSPGQTARITCSGDALPKKYAYWYHQKSGQAPVLVIYEDRRRPSEIPERFSGSSSGTMATLTITGAQVEDEGVYFCYSRDRAGNQRVFGGGTQLTVLG
notes: pH-dependent anti-C2 antibody from a phage display library
Which results are given for B1?
Fold diff (human C2 N403A): 1 fold; Fold diff (human C2 W420A): 2 fold; Fold diff (human C2 L453A): 1 fold; Fold diff (human C2 S473A): 2 fold
